This is an account of results in publication PMC5490264 (Nature Communications, 2017).

First the molecules themselves.
B1: YscN (enzyme)
chain: MLSLDQIPHHIRHGIVGSRLIQIRGRVTQVTGTLLKAVVPGVRIGELCYLRNPDNSLSLQAEVIGFAQHQALLIPLGEMYGISSNTEVSPTGTMHQVGVGEHLLGQVLDGLGQPFDGGHLPEPAAWYPVYQDAPAPMSRKLITTPLSLGIRVIDGLLTCGEGQRMGIFAAAGGGKSTLLASLIRSAEVDVTVLALIGERGREVREFIESDLGEEGLRKAVLVVATSDRPSMERAKAGFVATSIAEYFRDQGKRVLLLMDSVTRFARAQREIGLAAGEPPTRRGYPPSVFAALPRLMERAGQSSKGSITALYTVLVEGDDMTEPVADETRSILDGHIILSRKLAAANHYPAIDVLRSASRVMNQIVSKEHKTWAGDLRRLLAKYEEVELLLQIGEYQKGQDKEADQAIERIGAIRGWLCQGTHELSHFNETLNLLETLTQ
notes: YscN (SctN), type III secretion ATPase, Yersinia enterocolitica; also called SctN/YscN; T3SS ATPase; source: endogenous, Y. enterocolitica lysate (pYV virulence plasmid)
B2: Halo-YscQ (natural protein)
chain: MSLLTLPQAKLSELSLRQRLSHYRQNYLWEEGKLELTVSEPPSSLNCILQLQWKGTHFTLYCFGDDLANWLTPDLLGAPFSTLPKELQLALLERQTVFLPKLVCNDIATASLSVTQPLLSLRLSRDNAHISFWLTSAEALFALLPARPNSERIPLPILLSLRWHKVYLTLDEVDSLRLGDVLLAPEGSGPNSPVLAYVGENPWGYFQLQSNKLEFIGMSHESDELNPKPLTDLNQLPVQVSFEVGRQILDWHTLTSLEPGSLIDLTTPVDGEVRLLANGRLLGHGRLVEIQGRLGVRIERLTEVTIS
notes: also called Halo-tagged YscQ; SctQ/YscQ
B3: YscL (natural protein)
chain: MSQTCQTGYAYMQPFVQIIPSNLSLACGLRILRAEDYQSSLTTEELISAAKQDAEKILADAQEVYEQQKQLGWQAGMDEARTLQATLIHETQLQCQQFYRHVEQQMSEVVLLAVRKILNDYDQVDMTLQVVREALALVSNQKQVVVRVNPDQAGTIREQIAKVHKDFPEISYLEVTADARLDQGGCILETEVGIIDASIDGQIEALSRAISTTLGQMKVTEEE
notes: YscL (SctL), negative regulator of the T3SS ATPase, Yersinia enterocolitica; untagged; also called SctL/YscL; negative regulator of the ATPase; source: endogenous, Y. enterocolitica lysate (strain expressing Halo-YscQ)

The target in the series “Halo-YscQ” is B2. Description: affinity purification with mass spectrometry; as a1, but strains lacking YscD (ΔyscD; all soluble components diffuse in the cytosol); amounts normalized to the WT strain; one representative quantitative mass spectrometry experiment. As to conditions: partners not purified.
Series [1] concerns the molecule itself. The description is as above.

For the molecule B1, the “degree of interaction in the ΔyscD strain relative to the WT strain” value with Halo-YscQ is roughly 20%.
As for B2, the “degree of interaction in the ΔyscD strain relative to the WT strain” value in series [1] is roughly 50%.
As for B3, in the series with Halo-YscQ, the “degree of interaction in the ΔyscD strain relative to the WT strain” value is roughly 50%.
